Experimental data from paper PMC3846889, “Interacting Proteins on Human Spermatozoa: Adaptive Evolution of the Binding of Semenogelin I to EPPIN” (PLoS ONE, 2013).

B10: human recombinant EPPIN (residues P22-P133) (domain or fragment)
chain: not shown
notes: EPPIN, human, residues P22-P133, cloned into pET100/D-TOPO; also called tag-free EPPIN; source: E. coli Rosetta-Gami 2 (DE3), purified under denaturing conditions (Ni-NTA); 6X His-tag removed with enterokinase; not shown: His6, N-terminal, cleaved

How the values were obtained:
[1] = biological target: B10; test: cell-based or functional assay
[2] = biological target: B10; test: AlphaScreen or HTRF; competition: EPPIN (10 nM) and bt-SEMG1^214-42 (1 nM) with increasing SEMG1 competitor (10 pM - 8 µM), 30 µl, 15 µg/ml beads; as in ref. 23; settings: both partners purified
[3] = biological target: B10; test: AlphaScreen or HTRF; direct binding, concentration-response: EPPIN (29 nM) on anti-EPPIN Q20E antibody (2 nM) and Protein A acceptor beads; His-tagged SEMG1 construct (0.04-7.5 µM) on Ni-NTA-chelate donor beads; 10 µg/ml beads, 30 µl; EC50 from the specific signal after 16 h; settings: both partners purified
[4] = biological target: T1, biotinylated SEMG1^214-42 (human, UniProt P04279-1 26-281, biotin (biotinylated as in ref. 23; sites not stated)); test: AlphaScreen or HTRF; competition: EPPIN (10 nM) and bt-SEMG1^214-42 (1 nM) with increasing SEMG1 competitor (10 pM - 8 µM), 30 µl, 15 µg/ml beads; as in ref. 23; settings: both partners purified
T1 construct: semenogelin I (SEMG1), human, residues G26-R281; The same construct as m2, biotinylated; also called bt-SEMG1; source: E. coli BL21 Star (DE3), purified under denaturing conditions (Ni-NTA), then biotinylated
T1 sequence (looked up): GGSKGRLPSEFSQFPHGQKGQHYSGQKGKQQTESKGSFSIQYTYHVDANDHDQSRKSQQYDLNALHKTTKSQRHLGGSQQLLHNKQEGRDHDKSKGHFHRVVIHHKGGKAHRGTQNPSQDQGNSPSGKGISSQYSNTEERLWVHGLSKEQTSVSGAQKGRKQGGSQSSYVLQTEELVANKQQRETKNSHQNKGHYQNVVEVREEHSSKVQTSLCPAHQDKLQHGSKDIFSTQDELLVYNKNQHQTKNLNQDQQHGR

B1: recombinant SEMG1^74-42 (residues R165-R281) (domain or fragment, human, UniProt P04279-1 165-281, looked up)
chain: RLWVHGLSKEQTSVSGAQKGRKQGGSQSSYVLQTEELVANKQQRETKNSHQNKGHYQNVVEVREEHSSKVQTSLCPAHQDKLQHGSKDIFSTQDELLVYNKNQHQTKNLNQDQQHGR
notes: semenogelin I (SEMG1), human, residues R165-R281, in pET100/D-TOPO; source: E. coli BL21 Star (DE3), purified under denaturing conditions (Ni-NTA); not shown: His6, N-terminal, kept
B1 was tested, and the “inhibition of human sperm motility (normalized iRMI by CASA), concentration-response, EC50” value [1] was 3560 nM and the IC50 [2] was 124 nM.

B2: recombinant SEMG1^74-8 (residues R165-Q247) (domain or fragment, human, UniProt P04279-1 165-247, looked up)
chain: RLWVHGLSKEQTSVSGAQKGRKQGGSQSSYVLQTEELVANKQQRETKNSHQNKGHYQNVVEVREEHSSKVQTSLCPAHQDKLQ
notes: semenogelin I (SEMG1), human, residues R165-Q247, in pET100/D-TOPO; also called fragment 74-8; source: E. coli BL21 Star (DE3), purified under denaturing conditions (Ni-NTA); not shown: His6, N-terminal, kept
B2 was tested, and the IC50 [2] was 385 nM.

B3: recombinant SEMG1^32-8 (residues Q207-Q247) (domain or fragment, human, UniProt P04279-1 207-247, looked up)
chain: QRETKNSHQNKGHYQNVVEVREEHSSKVQTSLCPAHQDKLQ
With B3 the “inhibition of human sperm motility (normalized iRMI by CASA), concentration-response, EC50” value [1] was 1750 nM.

B4: human recombinant SEMG1^214-42 (wild-type, residues G26-R281) (domain or fragment, UniProt P04279-1 26-281, looked up)
chain: GGSKGRLPSEFSQFPHGQKGQHYSGQKGKQQTESKGSFSIQYTYHVDANDHDQSRKSQQYDLNALHKTTKSQRHLGGSQQLLHNKQEGRDHDKSKGHFHRVVIHHKGGKAHRGTQNPSQDQGNSPSGKGISSQYSNTEERLWVHGLSKEQTSVSGAQKGRKQGGSQSSYVLQTEELVANKQQRETKNSHQNKGHYQNVVEVREEHSSKVQTSLCPAHQDKLQHGSKDIFSTQDELLVYNKNQHQTKNLNQDQQHGR
notes: semenogelin I (SEMG1), human, residues G26-R281, cloned into pET100/D-TOPO; also called his-SEMG1; semenogelin I fragment G26-R281; source: E. coli BL21 Star (DE3), purified under denaturing conditions (Ni-NTA); not shown: His6, N-terminal, kept
With B4 the “inhibition of human sperm motility (normalized iRMI by CASA), concentration-response, EC50” value [1] was 1690 nM, the IC50 [2] was 8.1 nM and the EC50 [3] was 23.1 nM.

B5: C239S-SEMG1^214-42 (domain or fragment, human, UniProt P04279-1 26-281, looked up)
chain: GGSKGRLPSEFSQFPHGQKGQHYSGQKGKQQTESKGSFSIQYTYHVDANDHDQSRKSQQYDLNALHKTTKSQRHLGGSQQLLHNKQEGRDHDKSKGHFHRVVIHHKGGKAHRGTQNPSQDQGNSPSGKGISSQYSNTEERLWVHGLSKEQTSVSGAQKGRKQGGSQSSYVLQTEELVANKQQRETKNSHQNKGHYQNVVEVREEHSSKVQTSLSPAHQDKLQHGSKDIFSTQDELLVYNKNQHQTKNLNQDQQHGR
notes: semenogelin I (SEMG1), human, residues G26-R281 with C239S; Point mutant of m2; source: E. coli BL21 Star (DE3), purified under denaturing conditions (Ni-NTA); not shown: His6, N-terminal, kept
In the case of B5, the EC50 [3] is reported as 564 nM.

B6: C239D-SEMG1^214-42 (domain or fragment, human, UniProt P04279-1 26-281, looked up)
chain: GGSKGRLPSEFSQFPHGQKGQHYSGQKGKQQTESKGSFSIQYTYHVDANDHDQSRKSQQYDLNALHKTTKSQRHLGGSQQLLHNKQEGRDHDKSKGHFHRVVIHHKGGKAHRGTQNPSQDQGNSPSGKGISSQYSNTEERLWVHGLSKEQTSVSGAQKGRKQGGSQSSYVLQTEELVANKQQRETKNSHQNKGHYQNVVEVREEHSSKVQTSLDPAHQDKLQHGSKDIFSTQDELLVYNKNQHQTKNLNQDQQHGR
notes: semenogelin I (SEMG1), human, residues G26-R281 with C239D; Point mutant of m2; source: E. coli BL21 Star (DE3), purified under denaturing conditions (Ni-NTA); not shown: His6, N-terminal, kept
In the case of B6, the EC50 [3] is reported as 96.1 nM.

B7: C239H-SEMG1^214-42 (domain or fragment, human, UniProt P04279-1 26-281, looked up)
chain: GGSKGRLPSEFSQFPHGQKGQHYSGQKGKQQTESKGSFSIQYTYHVDANDHDQSRKSQQYDLNALHKTTKSQRHLGGSQQLLHNKQEGRDHDKSKGHFHRVVIHHKGGKAHRGTQNPSQDQGNSPSGKGISSQYSNTEERLWVHGLSKEQTSVSGAQKGRKQGGSQSSYVLQTEELVANKQQRETKNSHQNKGHYQNVVEVREEHSSKVQTSLHPAHQDKLQHGSKDIFSTQDELLVYNKNQHQTKNLNQDQQHGR
notes: semenogelin I (SEMG1), human, residues G26-R281 with C239H (His239 is the Gorilla residue); Point mutant of m2; source: E. coli BL21 Star (DE3), purified under denaturing conditions (Ni-NTA); not shown: His6, N-terminal, kept
B7 was tested, and the “inhibition of human sperm motility (normalized iRMI by CASA), concentration-response, EC50” value [1] was 1080 nM and the EC50 [3] was 167 nM.

B8: C239G-SEMG1^214-42 (domain or fragment, human, UniProt P04279-1 26-281, looked up)
chain: GGSKGRLPSEFSQFPHGQKGQHYSGQKGKQQTESKGSFSIQYTYHVDANDHDQSRKSQQYDLNALHKTTKSQRHLGGSQQLLHNKQEGRDHDKSKGHFHRVVIHHKGGKAHRGTQNPSQDQGNSPSGKGISSQYSNTEERLWVHGLSKEQTSVSGAQKGRKQGGSQSSYVLQTEELVANKQQRETKNSHQNKGHYQNVVEVREEHSSKVQTSLGPAHQDKLQHGSKDIFSTQDELLVYNKNQHQTKNLNQDQQHGR
notes: semenogelin I (SEMG1), human, residues G26-R281 with C239G; Point mutant of m2; source: E. coli BL21 Star (DE3), purified under denaturing conditions (Ni-NTA); not shown: His6, N-terminal, kept
In the case of B8, the EC50 [3] is reported as 83.3 nM.

B9: C239R-SEMG1^214-42 (domain or fragment, human, UniProt P04279-1 26-281, looked up)
chain: GGSKGRLPSEFSQFPHGQKGQHYSGQKGKQQTESKGSFSIQYTYHVDANDHDQSRKSQQYDLNALHKTTKSQRHLGGSQQLLHNKQEGRDHDKSKGHFHRVVIHHKGGKAHRGTQNPSQDQGNSPSGKGISSQYSNTEERLWVHGLSKEQTSVSGAQKGRKQGGSQSSYVLQTEELVANKQQRETKNSHQNKGHYQNVVEVREEHSSKVQTSLRPAHQDKLQHGSKDIFSTQDELLVYNKNQHQTKNLNQDQQHGR
notes: semenogelin I (SEMG1), human, residues G26-R281 with C239R (Arg239 is the residue of Macaca mulatta and Papio anubis); Point mutant of m2; source: E. coli BL21 Star (DE3), purified under denaturing conditions (Ni-NTA); not shown: His6, N-terminal, kept
For B9, the “inhibition of human sperm motility (normalized iRMI by CASA), concentration-response, EC50” value [1] was 2210 nM and the EC50 [3] was 461 nM.

B10: binds [4].
